# Test results reported in PMC7537338, “CD47/SIRPα blocking peptide identification and synergistic effect with irradiation for cancer immunotherapy” (Journal for Immunotherapy of Cancer, 2020).
# B1: pep-20 (peptide)
# chain: AWSATWSNYWRH
# modifications: not checked
# Legend:
# [1] = target: human CD47-IgV-Domain-hIg fusion protein (human), Q08722; experiment: flow cytometry on cells; competition: CD47-IgV-Domain-hIg (20 nM) incubated with titrating concentrations of peptide in PBS pH 7.4 for 1 hour at 4°C, then on SIRPα-overexpressing CHO cells 30 min at 4°C; PE-conjugated goat anti-human IgG; IC50 from sigmoidal dose response curves
# [2] = target: T1, mouse CD47-IgV-Domain-hIg fusion protein (mouse), Q61735; experiment: as above
# T1 chain: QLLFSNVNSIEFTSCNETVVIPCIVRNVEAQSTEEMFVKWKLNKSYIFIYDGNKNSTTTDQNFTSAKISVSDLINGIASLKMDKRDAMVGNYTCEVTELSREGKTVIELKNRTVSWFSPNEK
# [3] = target: T2, mouse CD47-IgV-Domain protein (mouse), Q61735; experiment: MST; human or mouse CD47-IgV-Domain protein labeled with NT-647, about 50 to 200 nM; unlabeled peptides or ligand protein diluted serially; 50 mM Tris, 150 mM NaCl, 10 mM MgCl2, 0.05% Tween-20, 0.5% DMSO, pH 7.5; 30 min at room temperature; 25°C
# T2 chain: T1 chain
# [4] = target: human CD47-IgV-Domain protein (human), Q08722; experiment: as above
# Sequence of human CD47-IgV-Domain protein (human), Q08722 (Q08722 19-141): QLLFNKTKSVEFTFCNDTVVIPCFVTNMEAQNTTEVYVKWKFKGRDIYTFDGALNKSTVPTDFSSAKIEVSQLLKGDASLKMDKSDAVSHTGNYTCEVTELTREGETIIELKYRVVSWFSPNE
# Sequence of human CD47-IgV-Domain-hIg fusion protein (human), Q08722 (Q08722 19-141): as above
binder,measurement,setting,value
B1,IC50,[1],24.6 µM
same,IC50,[2],12 µM
same,Kd,[3],3.63 µM
same,Kd,[4],2.91 µM
